The nanobody polyreactivity screen of Harvey et al. (2022)

assay: yeast display, Sf9 membrane polyspecificity reagent, FACS + sequencing; frameworks hold sequencing errors
Method in brief: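 A synthetic nanobody library was expressed on Saccharomyces cerevisiae BJ5465 by galactose induction for 36–48 hours. The library was stained for 1 hour at 4 °C with 10% biotinylated, detergent-solubilized Sf9 membrane reagent and enriched with streptavidin microbeads before FACS. Low and high (top ~1%) gates were set on anti-HA fluorescence for expression and streptavidin fluorescence for reagent binding, and each polyreactivity label reflects the gate of origin.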

Sequence | polyreactivity (PSR sort gate)
QVQLVESGGGLVQAGGSLRLSCAASGPISAIYDMGWYRQAPGKEREVVAAISGGTSTYYADSVKGRFTISRDNAKNTVYLQMNSLKPEDTAVYYCNAEASSYHGVEDEYDYWGQGTQVTVSS | low polyreactivity
QVQLVESGGGLVQAGGSLRLSCAASGPISRYNTMGWYRQAPGKERELVAAISYRGGSTYYADSVKGRFTISRDNAKNTVYLQMNSLKPEDTAVYYCNKVRSSVRSGGYGYWGQGTQVTVSS | high polyreactivity
QVQLVESGGGLVQAGGSLRLSCAASGPTFTPYAMGWYRPAPGKERELVAAISGGGSTNYADSVKGRFTISRDNAKNTVFLQMNSLKPEDTAVYYCAKRVYRGRRMDYWGQGTQVTVSS | high polyreactivity
QVQLVESGGGLVQAGGSLRLSCAASGRFFSWNAMGWYRPAPGTERELVAAISSSVGSTYYADSVKGRFTISRDNAQNTVYFQMNSRKPEDTAVYYCNAVPIGQWAYDYWGQGTQVTVSS | high polyreactivity
QVQLVESGGGLVQAGGSLRLSCAASGRGYYAMGWYRQAPGKERELVAAISRGGNTKYADSVKGRFTISRDNAKNTVYLQMNSLKPEDTAVYYCYTDWADYYYYTDYDYWGQGTQVTVSS | high polyreactivity
QVQLVESGGGLVQAGGSLRLSCAASGRICGYNSMGWYRQAPGKERELVAAISSSGGSTYYADSVKGRFTISRDYATNTVYVQMNSLKREATAVYYCAARIGYRSWAWDAYEYCGQGTQVTVSS | low polyreactivity
QVQLVESGGGLVQAGGSLRLSCAASGRIFADNGMGWYRQAPGKERELVASITSSGGDTYYADSVKGRFTISRDNAKNTVYLQMNSLKPEDTAVYYCATECSWLFYGVWVVTFGDDYWGQGTQVTVSS | low polyreactivity
QVQLVESGGGLVQAGGSLRLSCAASGRIFADNGMGWYRQAPGKERELVASITSSGGDTYYADSVKGRFTISRDNAKNTVYLQMNSLKPEDTAVYYCATEFSWLFYGVWVVTFGDDYWGQGTQVTVSS | low polyreactivity
QVQLVESGGGLVQAGGSLRLSCAASGRIFADYAMGWYRQAPGKERELVATITSGDRTYYADSVKGRFTTSRDNAKNTVYLQMNSLKPEDTAVYYCAAYKPWYVGLYPWYDYWGQGTQVTVSS | low polyreactivity
QVQLVESGGGLVQAGGSLRLSCAASGRIFAFNAMGWYRQAPGKERELVADITSSGVNTYYADSVKGRFTISRDNAKNTVYLQMNSLKPEDTAVYYCAARSYLRWWVGMEYWGQGTQVTVSS | low polyreactivity
QVQLVESGGGLVQAGGSLRLSCAASGRIFAFYAMGWYRPAPGKEREFVAAITYSGGNTNYADSVKGRFTISRDNAKNTVYIEMNSLKPEDTPVYYCAADLVYGVYYQEDYWGQGTQVTVSS | low polyreactivity
QVQLVESGGGLVQAGGSLRLSCAASGRIFAFYAMGWYRQAPGKEREFVAAISWSGGSTYYADSVKGRFTISRDNAKNTVYLQMNSLKPEDTAVYYCAARSRVRHSGMNYWGQGTQVTVSS | high polyreactivity
QVQLVESGGGLVQAGGSLRLSCAASGRIFAFYAMGWYRQAPGKERELVAAISWSGGSTYFADSVKGRFTISRDNAKNTVYLQMHSLIPEDTAVYYCAAYRTRGSAYPYDYWGQGTQVTVSS | high polyreactivity
QVQLVESGGGLVQAGGSLRLSCAASGRIFAGYAMGWYRQAPGKERELVASIRYSGGSTYADSVKGRFPISRDNAKNTVYLQMNSLKAEDTAVYYCAADIRQFYVGWGSTLWYGHDYWGQGTQVTVSS | low polyreactivity
QVQLVESGGGLVQAGGSLRLSCAASGRIFAGYVMGWYRQAPGKERELVAAISWRGGRTYYADSVKGRFTISRDNAKNTVYLQMNSLKPEDTAVYYCNAPYAVGYPADDYWGQGTQVTVSS | high polyreactivity
QVQLVESGGGLVQAGGSLRLSCAASGRIFAGYVMGWYRQAPGKERELVAAITSGGGTDYADSVKGRFTISRDNAKNTVYLQMNSQKPEDTAVYYCAADPYYSWFGWDYEYWGQGTQVTVSS | high polyreactivity
QVQLVESGGGLVQAGGSLRLSCAASGRIFAHNAMGWYRQAPGKERELVAAINWSGGSTYYADSVTWRFTISRDNAKNTVYLQMNSLKPEDTAVYYCNNRYIHRSRAGYDYWGQGTQVTVSS | low polyreactivity
QVQLVESGGGLVQAGGSLRLSCAASGRIFAHYAMGWYRQAPGKERELVAAISSGGSTYYADSVKGRFTISRDNEKNTVYLQINSLKPEDTAVYYCAADYLYPPYYEFYYWGQGTQVTVSS | low polyreactivity
QVQLVESGGGLVQAGGSLRLSCAASGRIFAHYAMGWYRQAPGKERELVADIRQSGGRTYYADSVKGRFTISRDNAKNTVYLKMNSLKPEDTAVYFCATDYGSWGDYSGKYDYWGQGTQVTVSS | low polyreactivity
QVQLVESGGGLVQAGGSLRLSCAASGRIFAHYAMGWYRQAPGKEREMVAAISRRGGSTYYAESVKGRFTISRDNAKNTVYLQMNRLKPEDTAVYYCNAVTRSSLSWFFGYDYWGQGTQVTVSS | high polyreactivity
QVQLVESGGGLVQAGGSLRLSCAASGRIFALYAMGGYRQAPGKERELVAAISIRAGSTYYADSAKGRFTISRDNAKNTVYLQMNSLKPEDTAVYYCATKGWVSTSYYYRPYGYWGQGTQVTVSS | high polyreactivity
QVQLVESGGGLVQAGGSLRLSCAASGRIFALYAMGWYRQAPGKERELVASINGSSGSTYYADSVKGRFTISRDTAKNTVYLQMNSLKPEDTAVYYCAKKYYGVKFYWGQGTQVTVSS | low polyreactivity

Sequence | polyreactivity (PSR sort gate)
QVQLVESGGGLVQAGGSLRLSCAASGRIFANAMGWYRQAPGKERELVAAISTSGGRTYYADSVKGRFTISRDNAKNTVYLQMNSLKPEDTAVYYCAARPHTPPVTSGYNHWGQGTQVTVSS | high polyreactivity
QVQLVESGGGLVQAGGSLRLSCAASGRIFAPYAMGWYRQAPGKEREVVAGITRGGITNYADSVKGRFTISRDNAKNTVYLQMNSLKPEDTAVYYCATVVNRRGFYQYYYWGQGTQVTVSS | high polyreactivity
QVQLVESGGGLVQAGGSLRLSCAASGRIFAQNAMGWYRQAPRNERELVAGISYGGGRTYYADSVKGRFTISRDKAKNTVYLQMNSLKPEDTAVYYCAKAVNSPRKYQLGNGYWGQGTQVTVSS | high polyreactivity
QVQLVESGGGLVQAGGSLRLSCAASGRIFAQYAMGWYRQAPGKERELVAAISSGGNTYYADSVKGRFTISRDNAKNTVYLQMNSLKPEDTAVYYCAASSRRYLWGFDYWGQGTQVTVSS | low polyreactivity
QVQLVESGGGLVQAGGSLRLSCAASGRIFARNAMGWYRPEPGKERELVAGITWSTASTYYADSVKGRFTISLDNAKNTVYLQMNSLKPEDTAVYYCAADSYYYYDYWYVYLYDYWGQGTQVTVSS | high polyreactivity
QVQLVESGGGLVQAGGSLRLSCAASGRIFARNAMGWYRQAPGKERELVAAISSSGGTYYADSVKGRFTISRDNAKNTVYLQMNSLKPEDTAVYYCNARVRTQQRWVDYWGQGTQVTVSS | high polyreactivity
QVQLVESGGGLVQAGGSLRLSCAASGRIFARYAMGWYRQAPGKERELVAAISRGGGSTYYADSVKGRFTISRDNAKNTVYLQMNSLKPEDTAVYYCNRLSKQKQEFDYWGQGTQVTVSS | high polyreactivity
QVQLVESGGGLVQAGGSLRLSCAASGRIFARYTMGWYRQAPGKERDLVAAISRGGGTNYADSVKGRFTISRDNAKNTVYLQMNSLKPEDTAVSYCAADVSLVYPYSYRYYYWGQGTQVTVSS | low polyreactivity
QVQLVESGGGLVQAGGSLRLSCAASGRIFASNAMGWYRPAPGKERELVAAITTTGGSTYYADSVKGRFTISRDNAKNTVYLQMNSLKPEDTAVYYCAKRLGYRYPTYDYWGQGTQVTVSS | high polyreactivity
QVQLVESGGGLVQAGGSLRLSCAASGRIFASYAMGWYRQAPGKERELVASITRRGGSTYYADSVKGRFTISRDNAKNTVYLQMNSLKPPGSTYEGGYWGQGTQVTVSS | low polyreactivity
QVQLVESGGGLVQAGGSLRLSCAASGRIFASYVMGWYSQAPGKERELVAAISRSGVSTYYADSVKGRFTISRDNEKNTVYLQINSLIPEDTAVYYCATTRFPRSFQEFGYWGQGTQVNVSS | high polyreactivity
QVQLVESGGGLVQAGGSLRLSCAASGRIFATNAMGWYREAPGKERELVATITRSAGRTYYADSVKGRFTISRDNAKNSVYLQMNSLKPEDTAVYYCAASYWDTEPGYREYDYWGQGTQVTVSS | low polyreactivity
QVQLVESGGGLVQAGGSLRLSCAASGRIFATNAMGWYRQAPGKERELVAGIRRSGARTYYADSVKGRFTISRDNAKNTVYLQMYSLKPEDTAVYYCNASLFIEIYSFQYDDHFAEYGYWGQGTQVTVSS | high polyreactivity
QVQLVESGGGLVQAGGSLRLSCAASGRIFATNAMGWYRQAPGKERELVATITRSAGRTYYADSVKGRFTISRDNAKYTVYLQMNSLKPEDTAVYYCAASYWDTEPGYREYDYWGQGSQVTVSS | low polyreactivity
QVQLVESGGGLVQAGGSLRLSCAASGRIFAVNAMGWYRQAPGKERELVASIRWSGGSTYYADSVKGRFTISRDNAKNTVYLQMNSLKPEDTAVYYCAAVFYLWGQGTQVTVSS | high polyreactivity
QVQLVESGGGLVQAGGSLRLSCAASGRIFAVNAMGWYRQAPGKERELVATIRGSGTSTYYADSVKGRFTISRDNAKNTVYLQMNSLKPEDTAVYYCAARGRYRQFNYWGQGTQVTVSS | high polyreactivity
QVQLVESGGGLVQAGGSLRLSCAASGRIFAVNAMGWYRQAPGNERELVAAITRGGSTNYADSVKGRFTISRDNAKNTVYLQMNSLKPEDTAVYYCAARVYTSPPVRSAPTGYYYWGQGTQVTVSS | high polyreactivity
QVQLVESGGGLVQAGGSLRLSCAASGRIFAWNDMGWYRQAPGKERELLPLFWSGGSTYYADSVKGRFTIARDNAKNTGYLQRNSLKPEDTAVYYCNKDSPPITPYDYWGQGTQVTVSS | low polyreactivity
QVQLVESGGGLVQAGGSLRLSCAASGRIFAWYTMGWYRQAPGKERELVAAISWNGGRTYYADSVKGRFTISRDNAKNTVYLQMNSLKPEDTAVYYCNADWYWRVYWGQGTQVTVSS | high polyreactivity
QVQLVESGGGLVQAGGSLRLSCAASGRIFAYNAMGWYRQAPGKERELVAAIDSGGDTNYADSVKGRFTISRDNAKNTVYLQMNSLKPEDTAVYYCAARLYVLRWYPYDYWGHGTQVTVSS | low polyreactivity
QVQLVESGGGLVQAGGSLRLSCAASGRIFAYNAMGWYRQAPGKERELVAAITWSGGITYYADSVKGRFTISRDNAKNTVYLQMNSLKPEDTAVYYCNVYVSAGEEDEYWGQGTQVTVSS | low polyreactivity
